These results are taken from article PMC3103430, “RecA Proteins from Deinococcus geothermalis and Deinococcus murrayi - Cloning, Purification and Biochemical Characterisation”.

Data set [1] has as its target DmuRecA (Deinococcus murrayi DSM 11303, UniProt E7CG23 1-359). The data set can be described thus: EMSA; 8-10 mM Mg2+ (most efficient), ATPgS + ATP, 37 C; 20 mM potassium phosphate pH 7.5, 0-10 mM MgCl2, 110 uM ATPgS + 300 uM ATP (ssDNA, 9 uM RecA) or 180 uM ATPgS + 500 uM ATP (dsDNA, 12 uM RecA), 30 min at 37 C (25-75 C series for ssDNA), 0.8% agarose gel. To be noted: protein: recombinant; tags: none (native start and stop codons, NdeI/XhoI in pET-30Ek/LIC); label: 5'-fluorescein. A general note: In EMSA bound probe runs differently from free probe, usually more slowly.

Data set [2] addresses DgeRecA (Deinococcus geothermalis DSM 11302, UniProt Q1IWF2 1-358). The description is as above. To be noted: protein: recombinant; tags: none (native start and stop codons, NdeI/HindIII in pET-30Ek/LIC); label: 5'-fluorescein.

Chain of DgeRecA (Q1IWF2 whole entry): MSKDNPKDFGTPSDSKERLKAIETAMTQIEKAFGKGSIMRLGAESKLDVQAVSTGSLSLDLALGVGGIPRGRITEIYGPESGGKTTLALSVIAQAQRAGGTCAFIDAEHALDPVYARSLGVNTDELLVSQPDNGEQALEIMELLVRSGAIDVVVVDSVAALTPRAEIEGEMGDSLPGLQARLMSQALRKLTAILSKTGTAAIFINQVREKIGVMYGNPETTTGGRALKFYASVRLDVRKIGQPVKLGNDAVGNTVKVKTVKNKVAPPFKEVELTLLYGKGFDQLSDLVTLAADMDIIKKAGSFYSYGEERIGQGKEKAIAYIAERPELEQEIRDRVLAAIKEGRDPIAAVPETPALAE

On to TTTTTTTTTTTTTTTTTTTTTTTTTTTTTTTTTTT (ssDNA) [oligo(dT)35], for which the binding result in data set [1] and in data set [2] was “binds” in each case.
